Laboratory results taken from paper PMC9482650, “Quantitative fragmentomics allow affinity mapping of interactomes” (Nature Communications, 2022).
Values belong to the binder of their own block, whether it stands above or below them.

Tests used:
Assay in all cases: holdup assay
Design in all cases: key: below the threshold = too weak to quantify, mostly under pKd 3.1 to 4
CARD11, Q9BXL7 = biological target: T1, CARD11, Q9BXL7
T1 sequence (Q9BXL7 662-765, limits assumed, looked up): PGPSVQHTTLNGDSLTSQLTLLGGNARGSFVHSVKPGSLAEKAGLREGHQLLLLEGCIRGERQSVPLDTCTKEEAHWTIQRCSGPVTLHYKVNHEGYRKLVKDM

MPDZ_5, O75970 = biological target: T2, MPDZ_5, O75970
T2 sequence (O75970 695-796, limits assumed, looked up): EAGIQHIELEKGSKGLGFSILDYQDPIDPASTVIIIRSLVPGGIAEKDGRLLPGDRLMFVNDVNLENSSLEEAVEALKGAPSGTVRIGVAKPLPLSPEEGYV

MPP7, Q5T2T1 = biological target: T3, MPP7, Q5T2T1
T3 sequence (Q5T2T1 134-230, limits assumed, looked up): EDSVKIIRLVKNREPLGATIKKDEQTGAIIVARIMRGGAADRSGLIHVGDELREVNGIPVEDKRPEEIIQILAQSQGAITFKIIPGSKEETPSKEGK

ARHGEF12, Q9NZN5-2 = biological target: ARHGEF12, Q9NZN5-2
ARHGEF12, Q9NZN5-2, sequence (Q9NZN5 other isoform, or with tags, fused parts or gaps): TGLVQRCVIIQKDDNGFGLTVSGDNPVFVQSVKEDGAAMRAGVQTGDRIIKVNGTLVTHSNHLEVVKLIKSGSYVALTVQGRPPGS

RADIL, Q96JH8 = biological target: T4, RADIL, Q96JH8
T4 sequence (Q96JH8 971-1071, limits assumed, looked up): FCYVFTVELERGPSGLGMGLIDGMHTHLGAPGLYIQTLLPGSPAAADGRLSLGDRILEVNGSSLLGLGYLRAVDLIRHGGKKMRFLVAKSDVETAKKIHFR

NHERF4_2, Q86UT5 = biological target: NHERF4_2, Q86UT5
NHERF4_2, Q86UT5, sequence (Q86UT5 220-308): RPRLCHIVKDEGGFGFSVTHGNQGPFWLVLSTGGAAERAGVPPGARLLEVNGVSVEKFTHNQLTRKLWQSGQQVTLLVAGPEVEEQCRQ

DLG3_3, Q92796 = biological target: T5, DLG3_3, Q92796
T5 sequence (Q92796 374-475, limits assumed, looked up): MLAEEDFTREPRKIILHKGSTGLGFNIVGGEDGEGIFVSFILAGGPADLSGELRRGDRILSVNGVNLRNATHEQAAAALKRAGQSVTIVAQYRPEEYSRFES

GRIP1_3, Q9Y3R0 = biological target: T6, GRIP1_3, Q9Y3R0
T6 sequence (Q9Y3R0 247-346, limits assumed, looked up): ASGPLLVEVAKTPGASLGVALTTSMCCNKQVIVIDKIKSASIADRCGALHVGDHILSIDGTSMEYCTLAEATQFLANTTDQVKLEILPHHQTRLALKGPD

GRIP2_6, Q9C0E4 = biological target: GRIP2_6, Q9C0E4
GRIP2_6, Q9C0E4, sequence (Q9C0E4 648-740): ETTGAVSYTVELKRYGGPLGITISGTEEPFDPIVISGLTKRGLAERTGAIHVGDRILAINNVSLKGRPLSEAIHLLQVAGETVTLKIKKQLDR

HTRA1, Q92743 = biological target: HTRA1, Q92743
HTRA1, Q92743, sequence (Q92743 360-477): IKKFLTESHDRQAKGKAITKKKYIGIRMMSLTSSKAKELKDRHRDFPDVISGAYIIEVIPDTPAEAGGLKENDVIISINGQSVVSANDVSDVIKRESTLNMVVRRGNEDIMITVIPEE

FRMPD2_3, Q68DX3 = biological target: FRMPD2_3, Q68DX3
FRMPD2_3, Q68DX3, sequence (Q68DX3 1073-1166): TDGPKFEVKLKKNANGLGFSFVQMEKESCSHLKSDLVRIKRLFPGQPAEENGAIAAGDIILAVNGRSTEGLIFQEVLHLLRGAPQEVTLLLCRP

SYNJ2BP, P57105 = biological target: T7, SYNJ2BP, P57105
T7 sequence (P57105 8-110, limits assumed, looked up): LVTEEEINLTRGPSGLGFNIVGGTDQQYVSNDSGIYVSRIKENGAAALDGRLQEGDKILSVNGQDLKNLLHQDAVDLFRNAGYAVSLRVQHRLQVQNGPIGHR

LRRC7, Q96NW7 = biological target: T8, LRRC7, Q96NW7
T8 sequence (Q96NW7 1440-1537, limits assumed, looked up): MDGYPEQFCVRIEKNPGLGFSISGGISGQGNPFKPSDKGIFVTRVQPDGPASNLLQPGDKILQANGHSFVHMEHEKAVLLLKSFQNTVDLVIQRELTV

DLG3_2, Q92796 = biological target: T9, DLG3_2, Q92796
T9 sequence (Q92796 221-321, limits assumed, looked up): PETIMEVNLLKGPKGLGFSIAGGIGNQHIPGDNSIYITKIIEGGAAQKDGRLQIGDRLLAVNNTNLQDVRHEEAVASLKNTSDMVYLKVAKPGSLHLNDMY

MAGI2_2, Q86UL8 = biological target: MAGI2_2, Q86UL8
MAGI2_2, Q86UL8, sequence (Q86UL8 410-522): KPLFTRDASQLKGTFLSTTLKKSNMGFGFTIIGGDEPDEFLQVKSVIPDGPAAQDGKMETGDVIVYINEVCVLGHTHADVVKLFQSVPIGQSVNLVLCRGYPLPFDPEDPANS

RHPN1, Q8TCX5 = biological target: T10, RHPN1, Q8TCX5
T10 sequence (Q8TCX5 508-602, limits assumed, looked up): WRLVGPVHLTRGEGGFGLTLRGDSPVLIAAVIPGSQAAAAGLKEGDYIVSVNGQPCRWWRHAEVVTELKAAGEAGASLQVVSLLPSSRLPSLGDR

SNX27, Q96L92 = biological target: SNX27, Q96L92
TJP1_3, Q07157 = biological target: TJP1_3, Q07157
TJP1_3, Q07157, sequence (Q07157 416-512): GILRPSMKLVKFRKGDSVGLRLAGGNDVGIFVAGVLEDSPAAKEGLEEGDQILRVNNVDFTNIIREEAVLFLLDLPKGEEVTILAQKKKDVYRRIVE

Inadl_6, Q8NI35 = biological target: Inadl_6, Q8NI35
Inadl_6, Q8NI35, sequence (Q8NI35 1058-1167): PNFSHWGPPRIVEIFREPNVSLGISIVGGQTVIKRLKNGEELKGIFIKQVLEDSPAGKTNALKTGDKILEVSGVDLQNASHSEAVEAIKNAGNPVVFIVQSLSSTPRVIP

ARHGEF11, O15085 = biological target: T11, ARHGEF11, O15085
T11 sequence (O15085 42-136, limits assumed, looked up): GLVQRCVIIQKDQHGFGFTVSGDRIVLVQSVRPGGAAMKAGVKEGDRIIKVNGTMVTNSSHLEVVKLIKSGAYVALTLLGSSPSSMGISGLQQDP

Inadl_1, Q8NI35 = biological target: Inadl_1, Q8NI35
Inadl_1, Q8NI35, sequence (Q8NI35 113-229): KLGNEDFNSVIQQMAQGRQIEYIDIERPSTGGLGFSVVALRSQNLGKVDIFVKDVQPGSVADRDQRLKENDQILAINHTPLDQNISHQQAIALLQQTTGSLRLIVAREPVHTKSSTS

SIPA1L2, Q9P2F8 = biological target: T12, SIPA1L2, Q9P2F8
T12 sequence (Q9P2F8 945-1036, limits assumed, looked up): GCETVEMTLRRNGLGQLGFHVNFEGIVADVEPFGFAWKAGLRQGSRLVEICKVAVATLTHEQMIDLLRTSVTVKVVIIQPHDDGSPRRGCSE

GRIP2_5, Q9C0E4 = biological target: GRIP2_5, Q9C0E4
GRIP2_5, Q9C0E4, sequence (Q9C0E4 544-642): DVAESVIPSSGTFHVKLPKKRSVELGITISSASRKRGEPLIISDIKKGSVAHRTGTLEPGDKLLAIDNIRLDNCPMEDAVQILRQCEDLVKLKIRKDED

DFNB31_1, Q9P202 = biological target: T13, DFNB31_1, Q9P202
T13 sequence (Q9P202 135-233, limits assumed, looked up): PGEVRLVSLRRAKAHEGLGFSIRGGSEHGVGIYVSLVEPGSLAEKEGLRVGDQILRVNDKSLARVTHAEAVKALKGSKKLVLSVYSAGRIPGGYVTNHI

[1] = plain residues with an end cap or a label only (N-terminal biotin on a linker: ado-ado)
[2] = plain residues with an end cap or a label only (N-terminal biotin on a linker: ahx)

pKd (CARD11, Q9BXL7; [1]): below the threshold | pKd (MPDZ_5, O75970; [1]): below the threshold | pKd (MPP7, Q5T2T1; [1]): below the threshold | pKd (ARHGEF12, Q9NZN5-2; [1]): below the threshold | pKd (RADIL, Q96JH8; [1]): below the threshold | pKd (NHERF4_2, Q86UT5; [1]): below the threshold | pKd (DLG3_3, Q92796; [1]): below the threshold | pKd (GRIP1_3, Q9Y3R0; [1]): below the threshold | pKd (GRIP2_6, Q9C0E4; [1]): below the threshold | pKd (HTRA1, Q92743; [1]): below the threshold | pKd (FRMPD2_3, Q68DX3; [1]): 3.97 | pKd (SYNJ2BP, P57105; [1]): 4.06 | pKd (LRRC7, Q96NW7; [1]): below the threshold | pKd (DLG3_2, Q92796; [1]): below the threshold | pKd (MAGI2_2, Q86UL8; [1]): 4.09 | pKd (RHPN1, Q8TCX5; [1]): below the threshold | pKd (SNX27, Q96L92; [1]): 3.83 | pKd (TJP1_3, Q07157; [1]): below the threshold | pKd (Inadl_6, Q8NI35; [1]): below the threshold | pKd (ARHGEF11, O15085; [1]): below the threshold | pKd (Inadl_1, Q8NI35; [1]): below the threshold | pKd (SIPA1L2, Q9P2F8; [1]): below the threshold | pKd (GRIP2_5, Q9C0E4; [1]): below the threshold | pKd (DFNB31_1, Q9P202; [1]): below the threshold
Binder: TRKRSGEAAV [PFKM, P08237]

pKd (CARD11, Q9BXL7; [1]): below the threshold | pKd (MPDZ_5, O75970; [1]): below the threshold | pKd (MPP7, Q5T2T1; [1]): below the threshold | pKd (ARHGEF12, Q9NZN5-2; [1]): 5.5 | pKd (RADIL, Q96JH8; [1]): below the threshold | pKd (NHERF4_2, Q86UT5; [1]): below the threshold | pKd (DLG3_3, Q92796; [1]): below the threshold | pKd (GRIP1_3, Q9Y3R0; [1]): below the threshold | pKd (GRIP2_6, Q9C0E4; [1]): below the threshold | pKd (HTRA1, Q92743; [1]): 4.12 | pKd (FRMPD2_3, Q68DX3; [1]): below the threshold | pKd (SYNJ2BP, P57105; [1]): below the threshold | pKd (LRRC7, Q96NW7; [1]): 3.74 | pKd (DLG3_2, Q92796; [1]): 3.72 | pKd (MAGI2_2, Q86UL8; [1]): below the threshold | pKd (RHPN1, Q8TCX5; [1]): 4.17 | pKd (SNX27, Q96L92; [1]): 4.12 | pKd (TJP1_3, Q07157; [1]): below the threshold | pKd (Inadl_6, Q8NI35; [1]): 4.14 | pKd (ARHGEF11, O15085; [1]): 4.65 | pKd (Inadl_1, Q8NI35; [1]): below the threshold | pKd (SIPA1L2, Q9P2F8; [1]): below the threshold | pKd (GRIP2_5, Q9C0E4; [1]): below the threshold | pKd (DFNB31_1, Q9P202; [1]): 3.47
Binder: AAVENKVTDL [PLXNB1, O43157]

pKd (CARD11, Q9BXL7; [2]): below the threshold | pKd (MPDZ_5, O75970; [2]): below the threshold | pKd (MPP7, Q5T2T1; [2]): below the threshold | pKd (ARHGEF12, Q9NZN5-2; [2]): below the threshold | pKd (RADIL, Q96JH8; [2]): below the threshold | pKd (NHERF4_2, Q86UT5; [2]): below the threshold | pKd (DLG3_3, Q92796; [2]): below the threshold | pKd (GRIP1_3, Q9Y3R0; [2]): below the threshold | pKd (GRIP2_6, Q9C0E4; [2]): below the threshold | pKd (HTRA1, Q92743; [2]): below the threshold | pKd (FRMPD2_3, Q68DX3; [2]): below the threshold | pKd (SYNJ2BP, P57105; [2]): below the threshold | pKd (LRRC7, Q96NW7; [2]): below the threshold | pKd (DLG3_2, Q92796; [2]): below the threshold | pKd (MAGI2_2, Q86UL8; [2]): below the threshold | pKd (RHPN1, Q8TCX5; [2]): below the threshold | pKd (SNX27, Q96L92; [2]): 3.68 | pKd (TJP1_3, Q07157; [2]): below the threshold | pKd (Inadl_6, Q8NI35; [2]): below the threshold | pKd (ARHGEF11, O15085; [2]): below the threshold | pKd (Inadl_1, Q8NI35; [2]): below the threshold | pKd (SIPA1L2, Q9P2F8; [2]): below the threshold | pKd (GRIP2_5, Q9C0E4; [2]): below the threshold | pKd (DFNB31_1, Q9P202; [2]): below the threshold
Binder: EKQAKGDTEF [CACYBP, Q9HB71]
